According to patent publication US20220194999A1:

Target: HLA-A*02:01 class I complex (conditional p*HLA*02:01, biotinylated heavy chain with beta2-microglobulin) (human)
Assay: UV peptide exchange, HLA class I ELISA, % of Pos peptide
Details: remark: other sources report otherwise

Average % [%]	Exch I (%)	Exch II (%)	average relative binding (%)	Binder
7	6.5	7.5	< 15	LVVVGACGV (here or on the partner: biotinylated heavy chain) [KRAS.G12C mutant peptide …]
4.5	4.3	4.6	< 15	LVVVGAVGV (here or on the partner: biotinylated heavy chain) [KRAS.G12V mutant peptide …]
